Data: patent US6919086B1, “Graminae pollen allergen mutants for specific immunotherapy, and production and use of the same” (Merck Patent Gesellschaft mit, priority 1997, dated 2005)
Substitutions are numbered along the chain they refer to. Names and notes keep the numbering of the source.

B1: rPhl p 5b deletion mutant DM3 (deletion A154-T177, A220T) (protein)
chain: ADAGYAPATPAAAGAAAGKATTEEQKLIEDINVGFKAAVAAAASVPAADKFKTFEAAFTSSSKAAAAKAPGLVPKLDAAYSVAYKAAVGATPEAKFDSFVASLTEALRVIAGALEVHAVKPVTEEPGMAKIPAGELQIIDKIDAAFKVAATAAGGAYDTYKCIPSLEAAVKQAYAATVAAAPQVKYAVFEAALTKTITAMSEVQKVSQPATGAATVAAGAATTAAGAASGAATVAAGGYKV
B2: DM1: deletion mutant of rPhl p 5b (ΔK50-P132, D49→L), SEQ ID NO 91 (protein)
chain: ADAGYAPATPAAAGAAAGKATTEEQKLIEDINVGFKAAVAAAASVPAALAGELQIIDKIDAAFKVAATAAATAPADDKFTVFEAAFNKAIKESTGGAYDTYKCIPSLEAAVKQAYAATVAAAPQVKYAVFEAALTKAITAMSEVQKVSQPATGAATVAAGAATTAAGAASGAATVAAGGYKV
B3: rPhl p 5b point mutant PM1 (N32D, D49L, K50A) (protein)
chain: ADAGYAPATPAAAGAAAGKATTEEQKLIEDIDVGFKAAVAAAASVPAALAFKTFEAAFTSSSKAAAAKAPGLVPKLDAAYSVAYKAAVGATPEAKFDSFVASLTEALRVIAGALEVHAVKPVTEEPGMAKIPAGELQIIDKIDAAFKVAATAAATAPADDKFTVFEAAFNKAIKESTGGAYDTYKCIPSLEAAVKQAYAATVAAAPQVKYAVFEAALTKAITAMSEVQKVSQPATGAATVAAGAATTAAGAASGAATVAAGGYKV
B4: rPhl p 5b point mutant PM3 (A13C) (protein)
chain: B3 chain with A13C, D32N, L49D, A50K

Each molecule was assayed against specific IgE on basophils from the blood of allergic patient (assay: cell-based or functional assay). Details: not given.
With B1 the concentration required to bring about a 30% histamine release from basophils, against wild type rPh1 p 5b was 3 fold higher.

Each molecule was assayed on basophils from the blood of an allergic patient (assay: Histamine release from basophils). Details: not given.
Type: cell-based, human
Experimental: Apart from the binding of the allergen to the spec. IgE, the allergen-induced, IgE-mediated release of histamine by allergic effect or cells is of pathophysiological importance for the allergic reaction (side effect). The reactivity of the effector cells (basophils and mast cells) and the epitope specificity of the IgE antibodies which are bound by way of FcεRI are also of importance in this context. For this reason, the modified recombinant allergen variants are tested for their ability to induce histamine release by the degranulation of IgE-loaded basophils which are isolated from the blood of allergic patients.
Before the histamine release test was carried out, the basophilic leucocytes from the EDTA blood of an allergic patient ([…]) were first of all enriched by means of dextran sedimentation and then adjusted to a final concentration of 100,000 basophils/ml. In order to release histamine from the basophils, 200 μl of the cell suspension were in each case incubated, at 37° C. for 40 min, with 50 μl of antigen solution. For this, the rPh1 […] p 5b and the mutants were employed in varying concentrations (of 10^−5-10^−12 M). The histamine which was released was determined in the respective supernatants using the Pharmacia methylhistamine RIA in accordance with the manufacturer's instructions.
B2 was tested, and the “Concentration required to bring about a 30% histamine release, fold higher than wild type rPhl p 5b” value was 20 fold. In the case of B1, the “Concentration required to bring about a 30% histamine release, fold higher than wild type rPhl p 5b” value is reported as 3 fold.

These molecules were tested on Phl p 5b-reactive T cell clones (TCCs) from allergic patients (assay: Proliferative reaction of Phl p 5b-reactive T cell clones ([3H]-thymidine incorporation)). Details: T cell-reactive region A; final concentration 0.3 μM.
Type: cell-based, human
Experimental: 40 ml of heparinized blood were obtained from each patient. Peripheral mononuclear cells (PBMC) were then isolated from this blood sample by means of the customary method using density gradient centrifugation. Analogous cell isolations were carried out at a later stage when it was necessary to obtain irradiated autologous antigen-presenting cells (APC) for characterizing the TCL and TCC further. After the PBMC had been counted, TCL which reacted to group 5 allergens in vitro were established as follows and as has already been described in detail elsewhere (Lit. 1): in each well of 24-well microculture plates, from 1.5 to 2.0×10^6 PBMC in 1 ml of culture medium (UltraCulture) were stimulated for 7 days in the added presence of natural Phl p5 allergens (in each case 10 μg/well) which had been purified by immunoaffinity chromatography. A total of from 8 to 10 of these cultures were set up. The isolation of Phl p5 by means of immunoaffinity chromatography has been described in detail (Lit. 2). At the end of the 7 days of culture, IL-2 (from 10 to 20 IU/well) was added to the cell cultures for a further 5 to 7 days. All the individual cultures were then pooled and the T cell blasts were enriched by means of density gradient centrifugation; the TCL which were obtained were then tested in a specific lymphocyte proliferation test (see Lit. 1 as well). For this, 2×10^4/ml TCL blasts were in each case cultured with 5×10^4/ml irradiated autologous APCs in triplicate samples in 96-well microculture plates. 10-20 μg of Phl p5 allergen were added as the specific antigen stimulus. After 56 hours of incubation, ^3H-labelled thymidine (1 μCi/well) was pipetted into the microcultures. After a further 16 hours, the radioactivity which had been incorporated into the proliferating T cell blasts was measured in a beta counter (Matrix 96). The results were calculated, as the arithmetic mean of the multiple samples, in counts per minute (cpm). The criterion for the quality of the TCL was the stimulation index, which was obtained by relating the cpm values with Phl p5 addition to those without Phl p5 addition.
After a TCL had been cloned (see below), the specificity of the isolated TCCs were determined as has just been described. Stimulation indices of at least 5 were rated as being positive for the TCCs. The determination of T cell epitopes for defining the T cell-reactive regions on group 5 allergens was also carried out using specific proliferation tests, with 1-2 μg of synthesized dodecapeptide/ml being used for this purpose in each case (see below).
The reactivity of the recombinant Ph1 p 5b mutants was tested on established T cell clones (TCCs) of known specificity. The TCCs derive from patients who are allergic to grass pollen (see Ex. 1) and are directed against the T cell-reactive regions A (FIG. 7), B (FIG. 8) and C (FIG. 9). The T cell reactivity was measured by stimulating the clones to proliferate.
B3 was tested, and the “Incorporation of [3H]-thymidine into TCC CB 2 (stimulation index class)” value was “+++ (>10 (+++))”, the “Incorporation of [3H]-thymidine into TCC CB 14 (stimulation index class)” value was “+++ (>10 (+++))” and the “Incorporation of [3H]-thymidine into TCC JR 13 (stimulation index class)” value was “+++ (>10 (+++))”. The “Incorporation of [3H]-thymidine into TCC JR 15 (stimulation index class)” value was “++ (5-10 (++))”. B4 was tested, and the “Incorporation of [3H]-thymidine into TCC CB 2 (stimulation index class)” value was “+++ (>10 (+++))” and the “Incorporation of [3H]-thymidine into TCC JR 13 (stimulation index class)” value was “+++ (>10 (+++))”. B2 was tested, and the “Incorporation of [3H]-thymidine into TCC CB 2 (stimulation index class)” value was “+++ (>10 (+++))”, the “Incorporation of [3H]-thymidine into TCC CB 14 (stimulation index class)” value was “+++ (>10 (+++))” and the “Incorporation of [3H]-thymidine into TCC JR 13 (stimulation index class)” value was “+++ (>10 (+++))”. For the same molecule, the “Incorporation of [3H]-thymidine into TCC JR 15 (stimulation index class)” value was “+++ (>10 (+++))”. With B1 the “Incorporation of [3H]-thymidine into TCC JR 13 (stimulation index class)” value was “+++ (>10 (+++))” and the “Incorporation of [3H]-thymidine into TCC JR 15 (stimulation index class)” value was “+++ (>10 (+++))”.

Same assay, conditions: T cell-reactive region B; final concentration 0.3 μM
For B3, the “Incorporation of [3H]-thymidine into TCC DW8 (stimulation index class)” value was “+ (1-2 (+))” and the “Incorporation of [3H]-thymidine into TCC UZH2 (stimulation index class)” value was “+++ (>10 (+++))”. For B4, the “Incorporation of [3H]-thymidine into TCC UZH2 (stimulation index class)” value was “+++ (>10 (+++))”. B2 was tested, and the “Incorporation of [3H]-thymidine into TCC DW8 (stimulation index class)” value was “+ (1-2 (+))” and the “Incorporation of [3H]-thymidine into TCC UZH2 (stimulation index class)” value was “+++ (>10 (+++))”. With B1 the “Incorporation of [3H]-thymidine into TCC DW8 (stimulation index class)” value was “+ (1-2 (+))” and the “Incorporation of [3H]-thymidine into TCC UZH2 (stimulation index class)” value was “+++ (>10 (+++))”.

Same assay, conditions: T cell-reactive region C; final concentration 0.3 μM
B3 was tested, and the “Incorporation of [3H]-thymidine, stimulation index SI, 3rd exp.” value was 1.1 and the “Incorporation of [3H]-thymidine, stimulation index class (last column, no head)” value was “− (<1 (−))”. In the case of B4, the “Incorporation of [3H]-thymidine, stimulation index SI, 1st exp.” value is reported as 7.4, the “Incorporation of [3H]-thymidine, stimulation index SI, 2nd exp.” value is reported as 5.9 and the “Incorporation of [3H]-thymidine, stimulation index SI, 3rd exp.” value is reported as 4.5. The “Incorporation of [3H]-thymidine, stimulation index class (last column, no head)” value was “++ (5-10 (++))”. In the case of B2, the “Incorporation of [3H]-thymidine, stimulation index SI, 1st exp.” value is reported as 8.6, the “Incorporation of [3H]-thymidine, stimulation index SI, 2nd exp.” value is reported as 6.2 and the “Incorporation of [3H]-thymidine, stimulation index SI, 3rd exp.” value is reported as 4.4. For the same molecule, the “Incorporation of [3H]-thymidine, stimulation index class (last column, no head)” value was “++ (5-10 (++))”. B1 was tested, and the “Incorporation of [3H]-thymidine, stimulation index SI, 1st exp.” value was 9.8, the “Incorporation of [3H]-thymidine, stimulation index SI, 2nd exp.” value was 6.9 and the “Incorporation of [3H]-thymidine, stimulation index SI, 3rd exp.” value was 4.4. For the same molecule, the “Incorporation of [3H]-thymidine, stimulation index class (last column, no head)” value was “++ (5-10 (++))”.

What follows are molecules tested against IgE antibodies of the individual allergic patient serum II/12 (assay: EAST inhibition, individual serum II/12). Details: not given.
In the case of B3, the IC50 is reported as 83 nM, the allergenic potency (Prel) at 25% inhibition (relative to native Phl p 5b) is reported as 0.391 and the allergenic potency (Prel) at 50% inhibition (relative to native Phl p 5b) is reported as 0.082. It also gave an inhibition value (inhibitor concentration at 25% inhibition) of 1.3e-09 mol/L. Molecule B4 has an IC50 of 91 nM, an allergenic potency (Prel) at 25% inhibition (relative to native Phl p 5b) of 0.389 and an allergenic potency (Prel) at 50% inhibition (relative to native Phl p 5b) of 0.075. For the same molecule, the inhibition value (inhibitor concentration at 25% inhibition) was 1.3e-09 mol/L. Work on B1 yielded an IC50 of 100000 nM, an allergenic potency (Prel) at 25% inhibition (relative to native Phl p 5b) of 0.012 and an allergenic potency (Prel) at 50% inhibition (relative to native Phl p 5b) of 5.7e-05. The inhibition value (inhibitor concentration at 25% inhibition) was 4.5e-09 mol/L.
